B1: chicken PD-1 protein (receptor)
chain: MALGTSRTMWDSTEAALVVLCVLLLCCNPPLAGCHQVTLFPATLTRPAGSSATFICNISMENSSLEFNLNWYQKTNNSNPQKIAGIIRNIPQKKMEKYRLFNNTPVFKMEILNLHQNDSGFYYCGLITFSRSDKVVESSHSQLVVTEAPEKTNTIDEPSEEESSPPDHIKAVLLGTLLLAGVIVLLLFGYIIINNRRADVQKPSSGNTLAEVKPPVVPVPTVDYGVLEFQRDPHSQVPLETCPAEQTEYATIVFPEEKPITPERGKRHKDERTWQLPSQPC
modifications: labeled using the BLUE-NHS protein labeling kit (NanoTemper)

Columns and labels:
chicken PD-L1 protein = chicken PD-L1 protein (chicken); experiment: MST
chicken PD-1 protein = biological target: B1; experiment: MST

B1
Kd (chicken PD-L1 protein): 2.65 nM

DAGLYHCLIEYGGADYKTINLK [peptide gDK2-3]
Kd (chicken PD-1 protein): 9.73 nM

From article PMC11533547 (Poultry Science, 2024)
